In IntAct's records for PubMed 18996118:

B1: Membrane protein insertase YidC (Escherichia coli (strain K12)), P25714 (parent)
chain: MDSQRNLLVIALLFVSFMIWQAWEQDKNPQPQAQQTTQTTTTAAGSAADQGVPASGQGKLISVKTDVLDLTINTRGGDVEQALLPAYPKELNSTQPFQLLETSPQFIYQAQSGLTGRDGPDNPANGPRPLYNVEKDAYVLAEGQNELQVPMTYTDAAGNTFTKTFVLKRGDYAVNVNYNVQNAGEKPLEISSFGQLKQSITLPPHLDTGSSNFALHTFRGAAYSTPDEKYEKYKFDTIADNENLNISSKGGWVAMLQQYFATAWIPHNDGTNNFYTANLGNGIAAIGYKSQPVLVQPGQTGAMNSTLWVGPEIQDKMAAVAPHLDLTVDYGWLWFISQPLFKLLKWIHSFVGNWGFSIIIITFIVRGIMYPLTKAQYTSMAKMRMLQPKIQAMRERLGDDKQRISQEMMALYKAEKVNPLGGCFPLLIQMPIFLALYYMLMGSVELRQAPFALWIHDLSAQDPYYILPILMGVTMFFIQKMSPTTVTDPMQQKIMTFMPVIFTVFFLWFPSGLVLYYIVSNLVTIIQQQLIYRGLEKRGLHSREKKKS
partner: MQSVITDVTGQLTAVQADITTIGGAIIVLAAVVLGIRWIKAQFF
B2: Capsid protein (Pseudomonas phage Pf3), P03623 (parent)
chain: B1 partner
partner: B1 chain

Variants of: B1
Conditions: with capsd_bppf3 VIII, P03623
In the case of MDSQRNLLVIALLFVCFMIWQAWEQDKNPQPQAQQTTQTTTTAAGSAADQGVPASGQGKLISVKTDVLDLTINTRGGDVEQALLPAYPKELNSTQPFQLLETSPQFIYQAQSGLTGRDGPDNPANGPRPLYNVEKDAYVLAEGQNELQVPMTYTDAAGNTFTKTFVLKRGDYAVNVNYNVQNAGEKPLEISSFGQLKQSITLPPHLDTGSSNFALHTFRGAAYSTPDEKYEKYKFDTIADNENLNISSKGGWVAMLQQYFATAWIPHNDGTNNFYTANLGNGIAAIGYKSQPVLVQPGQTGAMNSTLWVGPEIQDKMAAVAPHLDLTVDYGWLWFISQPLFKLLKWIHSFVGNWGFSIIIITFIVRGIMYPLTKAQYTSMAKMRMLQPKIQAMRERLGDDKQRISQEMMALYKAEKVNPLGGCFPLLIQMPIFLALYYMLMGSVELRQAPFALWIHDLSAQDPYYILPILMGVTMFFIQKMSPTTVTDPMQQKIMTFMPVIFTVFFLWFPSGLVLYYIVSNLVTIIQQQLIYRGLEKRGLHSREKKKS [S16C], the “effect of a mutation on the interaction” value is reported as “increasing interaction”.

Variants of: B1
Conditions: with capsd_bppf3 VIII
With MDSQRNLLVIALLFVSCMIWQAWEQDKNPQPQAQQTTQTTTTAAGSAADQGVPASGQGKLISVKTDVLDLTINTRGGDVEQALLPAYPKELNSTQPFQLLETSPQFIYQAQSGLTGRDGPDNPANGPRPLYNVEKDAYVLAEGQNELQVPMTYTDAAGNTFTKTFVLKRGDYAVNVNYNVQNAGEKPLEISSFGQLKQSITLPPHLDTGSSNFALHTFRGAAYSTPDEKYEKYKFDTIADNENLNISSKGGWVAMLQQYFATAWIPHNDGTNNFYTANLGNGIAAIGYKSQPVLVQPGQTGAMNSTLWVGPEIQDKMAAVAPHLDLTVDYGWLWFISQPLFKLLKWIHSFVGNWGFSIIIITFIVRGIMYPLTKAQYTSMAKMRMLQPKIQAMRERLGDDKQRISQEMMALYKAEKVNPLGGCFPLLIQMPIFLALYYMLMGSVELRQAPFALWIHDLSAQDPYYILPILMGVTMFFIQKMSPTTVTDPMQQKIMTFMPVIFTVFFLWFPSGLVLYYIVSNLVTIIQQQLIYRGLEKRGLHSREKKKS [F17C] the “effect of a mutation on the interaction” value was “increasing interaction”.

Variants of: B1
Conditions: with capsd_bppf3 VIII
Remark: another data set of the same source
With MDSQRNLLVIALLFVSFMIWQAWEQDKNPQPQAQQTTQTTTTAAGSAADQGVPASGQGKLISVKTDVLDLTINTRGGDVEQALLPAYPKELNSTQPFQLLETSPQFIYQAQSGLTGRDGPDNPANGPRPLYNVEKDAYVLAEGQNELQVPMTYTDAAGNTFTKTFVLKRGDYAVNVNYNVQNAGEKPLEISSFGQLKQSITLPPHLDTGSSNFALHTFRGAAYSTPDEKYEKYKFDTIADNENLNISSKGGWVAMLQQYFATAWIPHNDGTNNFYTANLGNGIAAIGYKSQPVLVQPGQTGAMNSTLWVGPEIQDKMAAVAPHLDLTVDYGWLWFISQPLFKLLKWIHSFVGNWGFSIIIITFIVRGIMYPLTKAQYTSMAKMRMLQPKIQAMRERLGDDKQRISQEMMALYKAEKVNPLGGCFPLLIQCPIFLALYYMLMGSVELRQAPFALWIHDLSAQDPYYILPILMGVTMFFIQKMSPTTVTDPMQQKIMTFMPVIFTVFFLWFPSGLVLYYIVSNLVTIIQQQLIYRGLEKRGLHSREKKKS [M430C] the “effect of a mutation on the interaction” value was “increasing interaction”.

Variants of: B2
Conditions: with yidc_ecoli yidC, P25714
With MQSVITDVTGQLTAVQADITTIGGAICVLAAVVLGIRWIKAQFF [I27C] the “effect of a mutation on the interaction” value was “increasing interaction”.

Variants of: B2
Conditions: with yidc_ecoli yidC
For MQSVITDVTGQLTAVQADITTIGGAIICLAAVVLGIRWIKAQFF [V28C], the “effect of a mutation on the interaction” value was “increasing interaction”.
